# In the RNAGym collection of RNA variant scans (doi:10.1073/pnas.2313332121):
# B1: TPR t1 (parent)
# chain: GACCAAUCUGCCCUCAGAGCUCGAGAACAUCUUCGGAUGCAGAGGAGGCAGGCUUCGGUGGCGCGAUAGCGCCAACGUCCUCAACCUCCAAUGCAUCCCACCACAUGAUGAUGCCUGAAGAGCCUUGGUUUUUUG
# Variants of: B1
# Assay: polymerase ribozyme fitness, log enrichment relative to wild type (log ratio); higher = more active; in vitro selection for triplet polymerase activity
# Method in brief: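 Mutant libraries were PCR-built and transcribed for each subunit of a heterodimeric triplet polymerase ribozyme and selected for one round in triplicate at −7 °C, frozen, before gel excision of extended constructs and streptavidin-bead capture. Input and output libraries were Illumina-sequenced, keeping genotypes with ≥10 input reads and ≥1 read per output. Fitness is a logarithmic ratio of genotype to wild-type enrichment, in base 2, using inverse-variance-weighted replicate averages.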
row,Variant,polymerase ribozyme fitness (log ratio)
1,U14A C56U C73U U112G G120C,-1.15
2,U14A C70G,-3.97
3,U14A C72U C89A,-3.16
4,U14A C101U,-3.07
5,U14A G19A G42U A43C C70A,-6.34
6,U14A G19U U32G U81G A100G G120C,-7.12
7,U14A G39A U55A U78C G117C,-7.2
8,U14A G45A G47U G52A C86A,-3.59
9,U14A G48A U59A C89A,-5.96
10,U14A G48U U59G,-2.71
11,U14A G52U C72U U116C G122U,-4.11
12,U14A G61A G117A,-4.06
13,U14A G61C,-3.93
14,U14A G63A G93A,-4.67
15,U14A G63C G113A,-4.74
16,U14A G71C G128A,-3.99
17,U14A U21A U30G G58C U112C A118C,-4.31
18,U14A U21G,-1.66
19,U14A U33G C34A G47C C70U U112A G127A,-6.98
20,U14A U54G A84U C98A A103U G117A C123G G128A,-6.1
21,U14A U106A,-1.9

row,Variant,polymerase ribozyme fitness (log ratio)
1,U14C,-1.23
2,U14C A16U C88U C101A U129G,-5.73
3,U14C A46C C79U U106C,-3.22
4,U14C A50U U96C C115U A121U,-5.13
5,U14C C15U C73G,-3.76
6,U14C C22U U32C,-5.53
7,U14C C53G A74C A83G C94U,-2.55
8,U14C C62U,-1.6
9,U14C G44A A46U A75G A95U,-3.28
10,U14C G44U,-3.05
11,U14C G48U C72G,-2.66
12,U14C G48U U54A,-2.87
13,U14C G51U C104U,-4.54
14,U14C G63C U112G G113U,-5.75
15,U14C G71U A91U C114A A121U C124U,-4.54
16,U14C U54G C62U,-1.69
17,U14C U67A G69A,-5.17
18,U14G,-1.56
19,U14G A37U C70U A74U U133G,-3.41
20,U14G A43U C88G,-3.5
21,U14G A43U G63C G71U C88G,-7.34

row,Variant,polymerase ribozyme fitness (log ratio)
1,U14G A91U,-3.73
2,U14G A95G,-2.23
3,U14G A95U,-2.44
4,U14G A111C G127A,-3.8
5,U14G C22U A29G C124G U129C,-3.15
6,U14G C40U U59C A84G U129A,-6.42
7,U14G C49G,-2.23
8,U14G C53A A84C,-2.21
9,U14G C56A G120C,-0.0635
10,U14G C56G A84U U106C G110U,-5.11
11,U14G C62U U78C,-2.77
12,U14G C64U C98U,-4.29
13,U14G C80U C89G,-4.89
14,U14G C101G,-3.2
15,U14G C101U U126G,-4.96
16,U14G C114U U132A,-7.19
17,U14G G36U G42C G61A G113A U132A,-5.95
18,U14G G42C A46C C53U G61A,-4.45
19,U14G G44C C80U,-3.74
20,U14G G44C C86U C89U G120A,-2.75
21,U14G G45A A121U,0.629

row,Variant,polymerase ribozyme fitness (log ratio)
1,U14G G45A C102U,-5.41
2,U14G G47A C89G C114G U116C G117A U133A,-6.43
3,U14G G48U,-2.8
4,U14G G58A A95U G117C,-5.13
5,U14G G60U G61A,-3.09
6,U14G G61C,-4.21
7,U14G G63A,-2.49
8,U14G G120C,0.117
9,U14G U21C G42U,-3.13
10,U14G U21G C40A G48C U106A,-5.19
11,U14G U54C,-2.42
12,U14G U78A G117A G120A,-2.29
13,U14G U130A,-3.36
14,C15A A16C C72A,-2.92
15,C15A A16U C20A C89G G117U,-3.6
16,C15A A16U C88A,-3.46
17,C15A A24U C72G C76U C123G,-6.56
18,C15A A26G G110A G113U,-6
19,C15A A29G,-2.66
20,C15A A41C,-3.59
